Test results published in patent US10076576B2, “Minimally toxic prodrugs” (priority 2012, dated 2018).
“Also recorded” adds a separate entry of the source.

Tests used:
[1] = Stability in citrated human blood; settings: 5 hours incubation at 37° C. in citrated human blood, 50 μM
[2] = biological target: CD26 (Homo sapiens, UniProt P27487); test: Reactivation assay with purified CD26; assay type: biochemical; settings: CD26 1 μg/ml
Protocol: TOP (recombinant human thimet oligopeptidase, R&D systems, Ref 3439-ZN) was diluted at 10 nM in a solution of 50 mM Tris-HCl pH 7.4/0.5M NaCl/0.1M DTT. CD26 and FAP were diluted at 1 μg/mL in a Tris-HCl pH 7.5 buffer. Reactions were initiated by addition of 50 μM of each compound to enzymes solutions (1 V enzyme solution+1 V 100 μM drug solution). Samples were incubated for 0, 1, or 3 hours at 37° C. in a water bath in the presence of purified enzymes. Fifty μL of sample were collected at each time point and processed as described above for human plasma. Activation of Suc-βALAL-dox was tested in parallel as a reference.

[3] = assay type: in vivo, CD1 mice
From the text: FIG. 13. Evaluation of chronic cardiotoxicity of PhAc-ALGP-Dox in CD-1 mice. Animals received 10 intravenous injections (arrows) of saline (●); Doxorubicin 6.9 μmol/kg (▪) or of PhAc-ALGP-Dox at 13.8 (▴), 27.6 (×), 55.2 (*) and 82.8 μmol/kg (◯). Results represent the evolution of the average relative body weight (%). †=dead mouse.
Chronic cardiac toxicity of PhAc-ALGP-Dox in mice was morphologically evaluated as previously described by Bertazzoli et al. 1979 (Cancer Treat Rep 63, 1877-1883). CD1 female white mice were treated by bolus intravenous injection in the tail vein at 10 μL/g (6 mice per group). Compounds were injected twice a week, ten times. Animals were not treated for 2 weeks between the first four injections and the last six injections to allow recovery of the bone marrow depression. The treatment dose-levels of PhAc-ALGP-Dox were: 13.8; 27.6; 55.2; and 82.8 μmol/kg. Doxorubicin 6.9 μmol/kg was used as a reference. Three weeks after the last injection, animals were deeply anaesthetized by intraperitoneal injection of nembutal (50 mg/kg) and exsanguinated. The hearts were carefully collected, rinsed in NaCl 9°/oo and fixed in a 10% formaldehyde solution. Samples were processed for histopathological analysis (CITox Lab, France). The heart was trimmed, embedded in paraffin wax, sectioned at a thickness of 4 microns and stained with hematoxylin-eosin before microscopic evaluation. During the course of the experiment, body weight was controlled before each injection or once a week.

[4] = test system: LS-174T tumor cell secreted peptidases; test: Reactivation assay in LS174T tumor cell conditioned medium; assay type: biochemical, human; settings: 5 h at 37° C.
Protocol: Sub-confluent cultures of LS-174T tumor cells were washed twice with a saline phosphate buffer solution, and fresh culture medium (DMEM-F12 without phenol red) containing 0.02% bovine serum albumin is added (100 μl/cm^2). After 24 hours incubation, the conditioned medium is collected, centrifuged for 10 minutes at 300 g, buffered with 1 M Tris-HCl, pH 7.4 (1 volume of buffer+19 volumes of medium) and concentrated 20 times by […] (cutoff threshold of 10 kDa).
Drug compounds (50 μM) were incubated for 0, 1, 3 or 5 hours at 37° C. in the presence of freshly prepared LS174T tumor cell conditioned medium. Fifty μL of sample were collected at each time point and processed as described above for human plasma.

[5] = test system: LoVo colon carcinoma xenografts; test: Activation at the tumor site after single iv bolus, LoVo xenograft; assay type: in vivo, NMRI nude mice; settings: 24 hours after single iv injection, 15-620 μmol/kg
Protocol: FIG. 6. PhAc-ALGP-Dox was administered at increasing concentrations (15, 35, 50, 100, 200, 300, 460, 620 μmol/kg) by intravenous injection to NMRI nude mice bearing LoVo colon carcinoma xenografts (3 mice per group). After 24 hours, mice were sacrificed and tumors were collected. Doxorubicin tumor concentration was determined after extraction by HPLC analysis. Results represent the average Doxorubicin tumor concentration (pmol/mg protein)±SD.
Drugs or controls were administered four weeks after subcutaneous implantation of the xenograft. […] The PhAc-ALGP-Dox conjugate was dissolved in saline at increasing doses (1.5, 3.5, 5, 10, 20, 30, 46, and 62 mM). […] Twenty-four hours after injection, mice were sacrificed by cervical dislocation and tumors were collected, rinsed in phosphate buffer saline and homogenized. An extraction of drugs from tumor homogenates was performed with acetonitrile and Doxorubicin present in tumors was quantified by HPLC analysis.

[6] = Stability in citrated human plasma; settings: 5 hours incubation at 37° C. in citrated human plasma (pH7), 50 μM
Protocol: The drug conjugates (50 μM) were mixed with human plasma and incubated for 5 hours at 37° C. in a water bath. […] Supernatant was collected.

[7] = 13.8-82.8 μmol/kg, 10 iv injections

CD26, sequence (P27487 whole entry): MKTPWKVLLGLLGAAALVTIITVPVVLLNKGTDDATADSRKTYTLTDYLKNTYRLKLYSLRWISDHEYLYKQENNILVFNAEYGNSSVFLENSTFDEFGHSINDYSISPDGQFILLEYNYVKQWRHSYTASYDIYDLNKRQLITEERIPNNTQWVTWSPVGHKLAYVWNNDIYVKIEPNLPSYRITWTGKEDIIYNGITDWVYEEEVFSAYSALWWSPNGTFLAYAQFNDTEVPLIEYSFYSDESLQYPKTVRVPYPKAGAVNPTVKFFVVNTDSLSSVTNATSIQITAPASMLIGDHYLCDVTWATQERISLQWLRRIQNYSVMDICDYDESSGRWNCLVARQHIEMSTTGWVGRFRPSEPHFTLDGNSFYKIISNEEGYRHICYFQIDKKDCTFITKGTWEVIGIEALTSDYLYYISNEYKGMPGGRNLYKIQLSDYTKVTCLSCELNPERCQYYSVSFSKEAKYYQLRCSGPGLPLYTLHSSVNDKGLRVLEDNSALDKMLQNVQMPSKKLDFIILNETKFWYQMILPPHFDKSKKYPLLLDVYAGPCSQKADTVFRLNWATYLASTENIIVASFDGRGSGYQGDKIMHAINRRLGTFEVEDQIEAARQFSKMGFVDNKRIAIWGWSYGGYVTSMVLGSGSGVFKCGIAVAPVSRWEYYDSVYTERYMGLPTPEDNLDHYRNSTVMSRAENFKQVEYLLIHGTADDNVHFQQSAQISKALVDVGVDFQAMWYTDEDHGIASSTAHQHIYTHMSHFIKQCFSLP

## COc1cccc2c1C(=O)c1c(O)c3c(c(O)c1C2=O)CC(O)(C(=O)CO)CC3OC1CC(NC(=O)C2CCCN2C(=O)CNC(=O)C(CC(C)C)NC(=O)C(C)NC(=O)CP(=O)(O)O)C(O)C(C)O1 (centres unmarked) [PhAc-ALGP-Dox, PhAc-ALGP-doxorubicin]
[1]
  % metabolites released: Dox: 6%
  % metabolites released: GP-dox: 3%
  % metabolites released: P-Dox: 0%
  total % metabolites: 9%
[2]
  hydrolysis by CD26 (in words): Neither CD26 nor FAP hydrolized; also recorded: did not hydrolyze
[3]; [7]
  body weight loss (in words): No body weight loss
  pathologic microscopic findings in the heart (in words): did not induce any pathologic microscopic findings in the heart at any dose levels
[3]; mouse, in vivo, iv
  Atrophy; myofiber: 0
  Atrophy; myofiber Grade 1: 0
  Atrophy; myofiber Grade 2: 0
  Degeneration/necrosis; myocardium: 0
  Degeneration/necrosis; myocardium Grade 1: 0
  Enlarg. Nuclei; myofib.: 0
  Enlarg. Nuclei; myofib. Grade 1: 0
  Infiltration; mix. Cells: 0
  Infiltration; mix. Cells Grade 1: 0
  Thrombus; atrium: 0
  Thrombus; atrium Grade 1: 0
  Vacuolation; myofib.: 0
  Vacuolation; myofib. Grade 1: 0
  Vacuolation; myofib. Grade 2: 0
[4]; 50 μM compound
  % Metabolites released after 5 h (LS174T CM20xcc): 81 ± 31%
[4]; metabolite Dox
  % Dox detected after 5 h (LS174T conditioned medium): 24%
[4]; metabolite GP-Dox
  % GP-Dox detected after 5 h (LS174T conditioned medium): 56%
[5]
  injected dose at which Dox tumor concentration reaches a plateau: 200 µmol/kg
[6]
  % metabolites released: Dox: 2%
  % metabolites released: GP-dox: 0%
  % metabolites released: P-Dox: 0%
  total % metabolites: 2%
